Assay results reported in ChEMBL document CHEMBL1139252, “Inhibition of purple acid phosphatase with alpha-alkoxynaphthylmethylphosphonic acids” (Bioorg Med Chem Lett, 2009).

Legend:
Details in all cases: Phaseolus vulgaris
[1] = substrate: CCCCCCCCOC(c1cccc2ccccc12)P(=O)(O)O; test: (§1) Activity of red kidney bean PAP at pH 6.2
[2] = substrate: CCCCCCOC(c1cccc2ccccc12)P(=O)(O)O; test: as §1
[3] = substrate: O=P(O)(O)C(O)c1cccc2ccccc12; test: as §1
[4] = substrate: O=P(O)(O)Cc1cccc2ccccc12; test: as §1
[5] = substrate: CCCCCCCCCCOC(c1cccc2ccccc12)P(=O)(O)O; test: as §1

B1: Fe(3+)-Zn(2+) purple acid phosphatase (Phaseolus vulgaris), P80366 (protein)
chain: MGVVKGLLALALVLNVVVVSNGGKSSNFVRKTNKNRDMPLDSDVFRVPPGYNAPQQVHITQGDLVGRAMIISWVTMDEPGSSAVRYWSEKNGRKRIAKGKMSTYRFFNYSSGFIHHTTIRKLKYNTKYYYEVGLRNTTRRFSFITPPQTGLDVPYTFGLIGDLGQSFDSNTTLSHYELSPKKGQTVLFVGDLSYADRYPNHDNVRWDTWGRFTERSVAYQPWIWTAGNHEIEFAPEINETEPFKPFSYRYHVPYEASQSTSPFWYSIKRASAHIIVLSSYSAYGRGTPQYTWLKKELRKVKRSETPWLIVLMHSPLYNSYNHHFMEGEAMRTKFEAWFVKYKVDVVFAGHVHAYERSERVSNIAYKITNGLCTPVKDQSAPVYITIGDAGNYGVIDSNMIQPQPEYSAFREASFGHGMFDIKNRTHAHFSWNRNQDGVAVEADSVWFFNRHWYPVDDST
- Km [1]: 3.41 mM
- Km [2]: 4.28 mM
- Km [3]: 5.31 mM
- Km [4]: 5.78 mM
- Km [5]: 3.1 mM
